Measurements taken from PMC4529168, “Molecular Cloning, Heterologous Expression, and Functional Characterization of an NADPH-Cytochrome P450 Reductase Gene from Camptotheca acuminata, a Camptothecin-Producing Plant” (PLoS ONE, 2015).

Test system: T1, NC(=O)C1=CN([C@@H]2O[C@H](COP(=O)(O)OP(=O)(O)OC[C@H]3O[C@@H](n4cnc5c(N)ncnc54)[C@H](OP(=O)(O)O)[C@@H]3O)[C@@H](O)[C@H]2O)C=CC1
T1 construct: N-terminal 69 residues (membrane anchor) removed, His6-tag kept (probably N-terminal, 660 residues with tag), expressed in E. coli BL21(DE3), Ni-NTA purified
Assay: purified protein
Assay type: biochemical, Camptotheca acuminata
Conditions: 75 μM equine heart cytochrome c, 50 mM Tris-HCl pH 7.4, 25°C

Chain of tCamCPR (Camptotheca acuminata) (chain, as listed by the source): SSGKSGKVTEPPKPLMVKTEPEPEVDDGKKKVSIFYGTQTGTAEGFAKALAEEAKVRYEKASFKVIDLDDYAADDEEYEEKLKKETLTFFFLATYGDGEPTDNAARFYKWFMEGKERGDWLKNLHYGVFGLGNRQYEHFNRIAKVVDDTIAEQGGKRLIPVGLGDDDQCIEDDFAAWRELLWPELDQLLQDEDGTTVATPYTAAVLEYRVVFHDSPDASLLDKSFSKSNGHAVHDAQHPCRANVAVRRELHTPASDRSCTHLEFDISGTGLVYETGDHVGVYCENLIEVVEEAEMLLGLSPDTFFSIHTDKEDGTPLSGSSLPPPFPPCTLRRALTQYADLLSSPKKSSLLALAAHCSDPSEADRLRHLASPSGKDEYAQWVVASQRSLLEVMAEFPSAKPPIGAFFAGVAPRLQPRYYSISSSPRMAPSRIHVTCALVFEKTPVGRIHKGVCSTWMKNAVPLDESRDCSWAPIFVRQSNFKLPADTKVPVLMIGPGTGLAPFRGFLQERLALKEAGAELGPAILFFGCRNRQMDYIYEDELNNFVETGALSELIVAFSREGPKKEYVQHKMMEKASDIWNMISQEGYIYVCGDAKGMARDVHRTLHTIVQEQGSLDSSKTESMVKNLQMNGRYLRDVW

tCamCPR (Camptotheca acuminata)
Km: 18.7 ± 3.6 µM
